The test has as its target Human CD16 (biotinylated, Sino Biological Inc, cat#10389-H27H1-B) (human) (UniProt P08637). The test can be described thus: ELISA, biotinylated CD16 captured on neutravidin, anti-human Fab-HRP detection. A general note: ELISA stands for enzyme-linked immunosorbent assay.

Chain of Human CD16 (biotinylated, Sino Biological Inc, cat#10389-H27H1-B) (human) (P08637 17-208): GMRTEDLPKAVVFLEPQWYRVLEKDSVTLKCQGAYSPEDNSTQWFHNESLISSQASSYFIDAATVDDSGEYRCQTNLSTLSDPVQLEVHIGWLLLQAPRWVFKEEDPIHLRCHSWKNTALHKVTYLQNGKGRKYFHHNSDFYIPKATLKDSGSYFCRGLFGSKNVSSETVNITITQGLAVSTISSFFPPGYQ

With Synagis (antibody), the EC50 (usually the concentration giving half of the maximal effect) worked out at 6.15 mg/L.

For the origin of these results see patent EP2767548A2.
